According to paper doi:10.1101/2020.12.04.411645 (bioRxiv, 2020):

Target: untagged full-length RAC1 Q61L (UniProt P63000 1-192, Q61L)
Assay: SPR

B1: MBP-tagged full-length CYRI-B (natural protein)
chain: MGNLLKVLTCTDLEQGPNFFLDFENAQPTESEKEIYNQVNVVLKDAEGILEDLQSYRGAGHEIREAIQHPADEKLQEKAWGAVVPLVGKLKKFYEFSQRLEAALRGLLGALTSTPYSPTQHLEREQALAKQFAEILHFTLRFDELKMTNPAIQNDFSYYRRTLSRMRINNVPAEGENEVNNELANRMSLFYAEATPMLKTLSDATTKFVSENKNLPIENTTDCLSTMASVCRVMLETPEYRSRFTNEETVSFCLRVMVGVIILYDHVHPVGAFAKTSKIDMKGCIKVLKDQPPNSVEGLLNALRYTTKHLNDETTSKQIRSMLQ
- Kd: 18.3 µM
